From the DeepSol protein solubility set

assay: soluble on expression in E. coli; label from the status in PepcDB or PDB records

Question: With “MGHHHHHHSHMKVVLSLGGSVLSNESEKIREFAKTIESVAQQNQVFVVVGGGKLAREYIKRARELGASETFCDYIGIAATRLNAMLLISAIPSAAKKVPVDFMEAEELSKLYRVVVMGGTFPGHTTDATAALLAEFIKADVFINATNVDGVYSADPKSDTSAVKYDRLSPQQLVEIVSRSSAKAGTNVVIDLLAAKIIERSKIKTYVIL” as the sequence, how does the “soluble on expression in E. coli” value read?
Answer: soluble

Question: Which “soluble on expression in E. coli” value does the source give for “MGHHHHHHSHMLAQPEPLVWVSKWVDYSNKFGFGYQLSSRRVAVLFNDGTHMALSANRKTVHYNPTSTKHFSFSVGAVPRALQPQLGILRYFASYMEQHLMKGGDLPSVEEVEVPAPPLLLQWVKTDQALLMLFSDGTVQVNFYGDHTKLILSGWEPLLVTFVARNRSACTYLASHLRQLGCSPDLRQRLRYALRLLRDRSPA” here?
Answer: not soluble

Question: With “MGHHHHHHSHMLIPKTMGKMSPGHVRDLHGSPSHHRPRGPGGKSGFVGWAQGLCAVCSLGTWCPVSQLLQPWLKGANIELGLWLQRVEAPSIGSFHVMLSLWVQRCQELRFGNLCLDFRIYMETPGCPGKSLLQGQSPHGEPLLGQCGREMWGRAPTQSPCWGTA” as the sequence, how does the “soluble on expression in E. coli” value read?
Answer: not soluble

Question: Which “soluble on expression in E. coli” value does the source give for “MGHHHHHHSHMLKKAKMAKDRKSRKKPVEVKKGKDPNAPKRPMSAYMLWLNASREKIKSDHPGISITDLSKKAGEIWKGMSKEKKEEWDRKAEDARRDYEKAMKEYEGGRG” here?
Answer: soluble

Question: For “MGHHHHHHSHMLPPPQPGAAGGSGQPRKCSSRRNAWGNLSYADLITRAIESSPDKRLTLSQIYEWMVRCVPYFKDKGDSNSSAGWKNSIRHNLSLHSRFMRVQNEGTGKSSWWIINPDGGKSGKAPRRRAVSMDNSNKYTKSRGRAAKKKA”, which “soluble on expression in E. coli” value is on record?
Answer: soluble

Question: With “MGHHHHHHSHMLSRWDDSQRFLSDHPYLVCEETAKYLILWCFHLEAEKKGALMEQIAHQAVVMQFIMEMAKNCNVDPRGCFRLFFQKAKAEEEGYFEAFKNELEAFKSRVRLYSQSQSFQPMTVQNHVPHSGVGSIGLLESLPQNPDYLQYSISTALCSLNSVVHKEDDEPKMMDTV” as the sequence, how does the “soluble on expression in E. coli” value read?
Answer: not soluble

Question: For “MGHHHHHHSHMLYVRCGTVGSRMFLVYVSYLINTTIEEKEIVCKCHKDETVTIETVFPFDVAVKFVSTKFEHLERVYADIPFLLMTDLLSASPWALTIVSSELQLAPSMTTVDQLESQVDNVILQTGESASECFCLQCPSLGNIEGGVATGHYIISWKRTSAMENIPIITTVITLPHVIVESIPLHVNADLPSFGRVRESLPVKYHLQNKTDLVQDVEISVEPSDAFMFSGLKQIRLRILPGTEQEMLYNFYPLMAGYQQLPSLNINLLRFPNFTNQLLRRFIPTSIFVKPQGRLMDDTSIAAA”, which “soluble on expression in E. coli” value is on record?
Answer: not soluble

Question: Which “soluble on expression in E. coli” value does the source give for “MGHHHHHHSHMNKILIAAASSGTGKTTVTLGIMHALKKRGLRVQPFKVGPDYIDTNYHQAITGVASINLDSFLIDDDAMLAALFEKHGQSADISVIEGVMGLFDGLGIDRDNSSTSFIAKCTKTPVILVVDGKAISTSAAAIVDGFNRFDPELTIAGVIINRVASENHFSLIKGAIERYTDVPVLGYLPKNAAVALPERHLGLVPKEEMTELETKWEVLGDLIAEHVDLDRLLAISKTG” here?
Answer: not soluble

Question: For “MGHHHHHHSHMRPDCDGWLLLRKAPGGFMGPRWRRRWFVLKGHTLYWYRQPQDEKAEGLINVSNYSLESGHDQKKKYVFQLTHDVYKPFIFAADTLTDLSMWVRHLITCIS”, which “soluble on expression in E. coli” value is on record?
Answer: not soluble

Question: For “MGHHHHHHSHMSAPIVDAPAAEIVYKIISSDGVVSKMSEKAVQQSKTLSNLIENLGYTIENIETRDPIPVTNVNGKTMAKVAEWCEKHKADAIPEDNMNVLKTLTIPEWDQKFLKIEDEALFDLILASNFLDIKGLMYFGCKTVSNMAKGKTTAELREIFGINTDEQDAAEETAQRAAAEVA”, which “soluble on expression in E. coli” value is on record?
Answer: soluble

Question: For “MGHHHHHHSHMSLTTSHFIPFPREMVWDWHTRKGAVARLTPPFIPLNPITQAERLADGTTIFSLPAGLKWVARHDLSGFLNGSRFTDVCLTAPVKALANWRHVHNFVDQDGGTLITDSVSTRLPASTLTGMFAYRQTQLIEDLKF”, which “soluble on expression in E. coli” value is on record?
Answer: not soluble

Question: With “MGHHHHHHSHMVCSPVTVRIAPPDRRFSRSAIPEQIISSTLSSPSSNAPDPCAKETVLSALKEKKKKRTVEEEDQIFLDGQENKRSCLVDGLTDASSAFKVPRPGPDTLQFTVDVFHFANDSRNMIYITCHLKVTLAEQDPDELNKACSFSKPSNSWFPVEGPADICQCCNKGDCGTPSHSRRQPRVVSQWSTSASRNRRHVTEEADVTVGATDLPGQEW” as the sequence, how does the “soluble on expression in E. coli” value read?
Answer: not soluble

Question: For “MGHHHHHHSHMVNKNAGETLLQRAARLGYEEVVLYCLENKICDVNHRDNAGYCALHEACARGWLNIVRHLLEYGADVNCSAQDGTRPLHDAVENDHLEIVRLLLSYGADPTLATYSGRTIMKMTHSELMEKFLTDYLN”, which “soluble on expression in E. coli” value is on record?
Answer: not soluble

Question: With “MGHHHHHHSHMVTASRYYPQLMSLVGNVLRFLPAFVRMKQLISEHYVGAVMICDARIYSGSLLSPSYGWICDELMGGGGLHTMGTYIVDLLTHLTGRRAEKVHGLLKTFVRQNAAIRGIRHVTSDDFCFFQMLMGGGVCSTVTLNFNMPGAFVHEVMVVGSAGRLVARGADLYGQKNSATQEELLLRDSLAVGAGLPEQGPQDVPLLYLKGMVYMVQALRQSFQGQGDRRTWDRTPVSMAASFEDGLYMQSVVDAIKRSSRSGEWEAVEVLTEEPDTNQNLCEALQRNNL” as the sequence, how does the “soluble on expression in E. coli” value read?
Answer: not soluble

Question: Which “soluble on expression in E. coli” value does the source give for “MGHHHHHHSHNCHWTYLKQNRKMAANSSGQGFQNKNRVAILAELDKEKRKLLMQNQSSTNHPGARY” here?
Answer: not soluble

Question: Which “soluble on expression in E. coli” value does the source give for “MGHHHHHHSHPKGVLPSHYYESFLEKKGPCDRDYKKFWAGLQGLTIYFYNSNRDFQHVEKLNLGAFEKLTDEIPWGSSRDPGTHFSLILRNQEIKFKVETLECREMWKGFILTVVELRVPTDLTLLPGHLYMMSEVLAK” here?
Answer: not soluble

Question: For “MGHHHHHHSHQQENGSMFSLITWNIDGLDLNNLSERARGVCSYLALYSPDVIFLQEVIPPYYSYLKKRSSNYEIITGHEEGYFTAIMLKKSRVKLKSQEIIPFPSTKMMRNLLCVHVNVSGNELCLMTSHLESTRGHAAERMNQLKMVLKKMQEAPESATVIFAGDTNLRDREVTRCGGLPNNIVDVWEFLGKPKHCQYTWDTQMNSNLGITAACKLRFDRIFFRAAAEEGHIIPRSLDLLGLEKLDCGRFPSDHWGLLCNLDIIL”, which “soluble on expression in E. coli” value is on record?
Answer: not soluble

Question: Which “soluble on expression in E. coli” value does the source give for “MGHHHHHHSHVTNLNLATGIINRSSASAPPTLRPIISPSGPTWSTQSDPQAPENHSSSPGSSFI” here?
Answer: not soluble

Question: With “MGHHHHHHSHYGSLNPKAITISQYGEPFVVGTSRVVEIIRKLRERFGEVRIDIQTNGTLLEPEILGSEADIVMISLDAGSRESYAEITGKDFFERVVKNIEKMSEHTYTVVRTVFMPGINDEELERIAEIASQADELFLQPLSIYRENTELLKRLDVERAESLGDYLQTAYRLSEIASVRIPGCLLLNMRWFLREFEIGEL” as the sequence, how does the “soluble on expression in E. coli” value read?
Answer: not soluble

Question: With “MGHHHHHHSHYHVYWLEMVLFYRAHFGTDETILDGKEYDIYVSYARNAEEEEFVLLTLRGVLENEFGYKLCIFDRDSLPGGIVTDETLSFIQKSRRLLVVLSPNYVLQGTQALLELKAGLENMASRGNINVILVQYKAVKETKVKELKRAKTVLTVIKWKGEKSKYPQGRFWKQLQVAMPVKKSPRRSSS” as the sequence, how does the “soluble on expression in E. coli” value read?
Answer: soluble

Question: Which “soluble on expression in E. coli” value does the source give for “MGHKLAFNFNLEINGSDTHSTVDVYLDDSQIITFDGKDIRPTIPFMIGDEIFLPFYKNVFSEFFSLFRRVPTSTPYEDLTYFYECDYTDNKSTFDQFYLYNGEEYTVKTQEATNKNMWLTTSEFRLKKWFDGEDCIMHLRSLVRKMEDSKRNTG” here?
Answer: not soluble

Question: For “MGHPPLLPLLLLLHTCVPASWGLRCMQCKTNGDCRVEECALGQDLCRTTIVRLWEEGEELELVEKSCTHSEKTNRTLSYRTGLKITSLTEVVCGLDLCNQGNSGRAVTYSRSRYLECISCGSSDMSCERGRHQSLQCRSPEEQCLDVVTHWIQEGEEGRPKDDRHLRGCGYLPGCPGSNGFHNNDTFHFLKCCNTTKCNEGPILELENLPQNGRQCYSCKGNSTHGCSSEETFLIDCRGPMNQCLVATGTHEPKNQSYMVRGCATASMCQHAHLGDAFSMNHIDVSCCTKSGCNHPDLDVQYRSGAAPQPGPAHLSLTITLLMTARLWGGTLLWT”, which “soluble on expression in E. coli” value is on record?
Answer: not soluble

Question: For “MGIKHLNLTVADVVAAREFLEKYFGLTCSGTRGNAFAVMRDNDGFILTLMKGKEVQYPKTFHVGFPQESEEQVDKINQRLKEDGFLVEPPKHAHAYTFYVEAPGGFTIEVMC”, which “soluble on expression in E. coli” value is on record?
Answer: soluble
